Data on 16 sequences can be found in a protein production outcome set (Wang et al. 2014).

This data set in a line: label from the status in PepcDB records.
Turning to “MVYDNIKREIIGMLKRMPNKQADWDNDLLPTLKAMFNPKSVSNAKSQLISEGVISQEIVDGKKIITLIKDPYELQAPNVFDEEMFLAYYTDKLKEYFKHKLSTEGPEWDIFDVKEFIMHFPESGDLNDKLIEHPYEVRKSITNVYIEAYEELFNETPNVEFIHIRNPIDCRISLSELSSAHKGKLVEFRAMILQATKLKLRYAKGFYYCPKCGATKTLDLGFWDKPKEVGKSLTCPADGCDCKGLIFDEDLSGKVDFQEIKVQTPLQESIYANKHSTTVFYEFNKPKKAVYSGYVKIVGVPIVKENKNGSVGELYIHAFYIEKDDEDIEEIAKNLNEKDLELINRIAKDKNVIQKLSDYAFREVTGYDMIKRAVLLQLVSSGTNIDMRTSIHILMISDPGVGKSTLMESLIQKFPFVKKVYAVTSSGPGLVGSVVREKAEFGDSWVLKAGVLTEADGGVVCIDEFSRNKEVYDYLLGVMEQQKIEINKAGVIDAVLPARVAILAACNPRFGRFNPDLTVWEQINLPKELLDRFDLIFVIKDKIDKKKDEDIADFSIDNYNSKVRERKGKSSGKKFVINGVELNDELLLKYVLYARQIEPEISDEARKIIKEYYVSVRKMSEAKGTFGISARQLGSIIRLAVAHAKLRLSEVVKAVDAEEAIRLVDTCLKQIAYDPESGSIDIDKIAGTPKSKRDKVEKVLNIIKEISNSRDDGLAPEEEIYERAERAGLSEKEVEDAINYLKRVGDIYSPKSGYWQLMS”, the protein production entry is “failed”.

As for “MSIIEDNKISFVIPTINEEKTIGSVIDGIHENFPNAEIILVDTNSTDKTKEIAKSKGATVIEEPRKGYGRAYQTGIPAAKGDIIVCMDGDGTYPTDIVKPLIEILILDKVDFISCDRITFRTSTNYTTLHYVGNMVLNLTIRILFKVRMVDSQSGMWIFRSELYKKMKNLGYGMSFSQNIKIEAVRHGVFIEIPIRYGVRITKPKLKTWHDGFHNLFALFIKRVSELEHHHHHH”, the protein production result is listed as “not failed”.

On to “MVLPSSHRILVVDDNAVTRYSVRRVLEHHQFVVEEAGTGGEGLVRLAAEAFAAVVLDVNLPDMSGFDIVRTLRAEPRTALLPVVHVSAASIATGDMITGLDAGADAYLIHPVDPNVLVATLRTLLRARNAEEALRLSEARFREIFEHIGAPIAVVDAQLHTQEANAAFQRLIGSATPCEAINVPGLDQCATVQALTAALGRRERWSGTLSILRDGAVRETEWRVSPYREPDLGLLFVEDVTEQRLREREQRQELDTATSELAHQIAERQRTEIQLLQAQKMEALGKLTGGIAHDFNNLLTSIISGLDMIQLAVESNRIERVPRLAEIATGSAHRAAALTQRMLAFARKQSLDAQPFDVNARVRSLEDMLRRSIGENIALELQLAEAPLVAIADANQLENVVLNLVINARDALQGHGTIRIQSAPHTAYNDPELEDGDYVAVNVIDDGSGIDPAILSQVFEPFFTTKPIGEGTGLGLSMTYGFARQSGGTARITSTLGSGTTVALLLPRGLTVGEALPPPPPNAPRGRSQRILLVDDTDVVRMMVSEVLSDAGYHVIEAENADGALAQLRADAQIDMVVSDVGLPGMNGRDMADVARDLRPGLPILFITGYAENAATRQEFLAEGMALLPKPFSLNDLLNTVSRMLG”, for which the protein production entry was “failed”.

As for “MDSVELCLPESFSLHYEEELLCRMSNKDRHIDSSCSSFIKTEPSSPASLTDSVNHHSPGGSSDASGSYSSTMNGHQNGLDSPPLYPSAPILGGSGPVRKLYDDCSSTIVEDPQTKCEYMLNSMPKRLCLVCGDIASGYHYGVASCEACKAFFKRTIQGNIEYSCPATNECEITKRRRKSCQACRFMKCLKVGMLKEGVRLDRVRGGRQKYKRRIDAENSPYLNPQLVQPAKKPYNKIVSHLLVAEPEKIYAMPDPTVPDSDIKALTTLCDLADRELVVIIGWAKHIPGFSTLSLADQMSLLQSAWMEILILGVVYRSLSFEDELVYADDYIMDEDQSKLAGLLDLNNAILQLVKKYKSMKLEKEEFVTLKAIALANSDSMHIEDVEAVQKLQDVLHEALQDYEAGQHMEDPRRAGKMLMTLPLLRQTSTKAVQHFYNIKLEGKVPMHKLFLEMLEAKV”, the protein production entry is “not failed”.

Take “MKRLFLPLLGFLSLVLMCCNDNKESGTDSYDPNKPVTIDYFTPDTGRVAEKVIIIGNNFGNDKSAVTVLFTDNMEKENKAAVVGVDNTTIYCMAPRQAEGFNKITVKVNDQTVVADETFKYSVSENVSTIAGDFVQADGAGKDGSLAEATFGQMFGVACIDEQSGIVGQAWNNNSVRYISIDEDAVITIQSGPVVGKVAVSNDKTLAYGATINGANTVYVYKKSQAWVPSRLSDISSGTDVWAVALNGDNQWLYYVTANGRLGRIEVDNPTHNEILFEHNDFSGGPFAYIAYSAFEDCFYVTTDKNKILKVWVKEDGTHAYEQINQNNTGTTDGFLADEAKFQYLRGLTIDEDGNIFVCQGDNSHVIRKIAYDENMEKRYVTTVLGTSTVHGTDDGSPDIALFNGPQDISYDGNGGYWIAMRYEPALRKYSIE”: the protein production result is “failed”.

Take “MKDLFSTDSQRYQQARPTYPPSLLQSLLQYIPERELAWDCGAGSGQLTHMLASYFDQVVGTDISQTQLSHAEYYDNISYQLQPAENTTFPDHCFDLITVAQAIHWFDFEAFYAEVRRTIKPSGILAVVGYGLIHVDDLEINAKVQHLYHQTLNGFWDAERHYVDELYQTIPFPFDEIEMPAFQIEAQWTLQQLLQYLNTWSAVQHYILEKNLDPVQQLLSKGRDLQDQVSIQFPVLLRVGRCS”: the protein production entry is on record as “failed”.

In the case of “MKVYLHFSPQFFANTYLIGNEITKEAVIIDPAKITEKMIHQIEKNEFNLKAVLLTHDLEHPYETGLNTILKIYSPKVYAGSCFSENVTINTLRGDGCIDVAGYSVRYFAIPAHSSYSYMFQIENMVFTGTSLSAGMIGQTSNMYAERTLRNILKTKLMCFEDNLIIMPFYGPPTSIGVERKYNASFFQDLEHHHHHH”, the protein production result is reported as “failed”.

As for “MLFGGNRNKMLKTIITSAITYSSTAIDLLIILMLFFAKIKDKKGIRDIYIGQFLGSDVLILVSLFFAFILHYVPDKRLLGLLGIIPIFLGLKALIFGDSDGEKMANKELNNNNNKMNLIKTLMFITIVSCGADNIGLFVPYFISLTPLNLVITLIVFLIMIFLLVFVAQKLANVPTIGEVLEKYSRWFIGFVYIFIGGSVLIENGSIQFIINLFK”, the protein production entry is listed as “failed”.

On to “MFYFMTLSFIIMPALGCFLIGLVLAKSDRWTFSWILSLIGLVAFISSFWHIERADLWFMLSYSFGPFLMGFGFTWDLSNKRRMQLLLLGLFFLIFFMILYYLIVRILNTAVV”, for which the protein production entry is recorded as “failed”.

On to “MLLDYDFLLLLNDESGKPTRYYYLLQDFEKDFVAREVAQNKTKRFVKEIIGSEKASKTKNSAIEVSNTKASAMKNETIGSGDLKKVCEKIKSALPFGIISAFKPFKDAFYRDFNHNEQKLLIGAAKSGCIQSSADKLAQLKTRLLYWQDKSVKVDWDKPILIKDFFKGNNYLYRRFCFLLGKHFMDRFLKNNAKASVKDFMSSKEFVAKYRYTPKQNTERAKKLQSYLENKRDFIGFVQALNSLKDNPQDPFLPNEETSFLVFANEPTIVFNLRDYLLVLAQIFNQQAICYCESKCPIELINASPGKDFNKTQDSFPDIKFSTPNQLEQSLNALKNKLAAFFSKHPDKHNGMEFNEIAKTQIEALYMPQSSDGFDDFRKHLEESIKSFIRAKKNRYGFPKIFDVADIEQEERKVIEWREKERASKQSYKQNLQINKIANDLKRDKVVDKRTILSVIDADLDRGFIPPKDLLKQLEKISASLSKDIVIAIKQVEKLELSYALIDNIQHNTLDDTLDFTFIVGDSLSVQSLYVTFDLVIDMDRPMSEQFLNHIGELGSFESRERALEWVRLSQAKLIIETPREALKNAQLSQIEEILTGCIFNGAYRLQNDLKGNRHGNFK”, for which the protein production result is “failed”.

On to “EDVSWIKPGQVSWEWWNGATPYGQDVTFKAGCNLETYKYFIDFASKFGIPYIIMDEGWAKSTRDPYTPNPDVDLHELIRYGKEKNVGIVLWLTWLTVEKNFDLFKTFNEWGIKGVKIDFMDRSDQWMVNYYERVAQEAARHHLFVDFHGSFKPAGLEYKYPNVLSYEGVRGMEQMGGCKPENSIYLPFMRNAVGPMDYTPGAMISMQPNIYRSERPNSASIGTRAYQMALFVIFESGLQMLADNPTLYYRNEDCTRFITQVPVTWDET”, for which the protein production result is “failed”.

For “MAKTIYQPAPEAESNIREERSQRPNNRRRILLITVAASVILGLVAILFGGAILNPAATPESEPTMTATQIIPLVILVVMFVVATKWPLNIGVMGLVASFGVGYFMLGMTDKEILADFPANIVITIIGVTYFFSMAQRNGTVDIIVQTCVRLVRGKTLLLPWVFFLLAASLTALGTFSPAAVALLAPAAIGLAYESRIHPVLMGAFIINGAHAGGFSPLSVAGVLVHDIAVKNGFPISQGALFGASFALNLILSVLTVVLFALLGKLRDGATGQHADLDTTRTTRPHGQQILTLALIVAMLVCALGFHMPIGFVALSAGLLLALVNIKEHRTFIGGVSWSTVLLVAGMITYVSLLQHVGVIDTLAEQALALGAPLLIALVLCYVIGVGSAFASSTALLTAFIPLAGPLLATSSLSASGTVAALAIAATVVDVSPFSTDGALVVANAREDDRQRVYKQLMMYAGGVVLVAPALAWALLVPTGIM”, the protein production result was “failed”.

With “MHTDVNALFAALWQDYIKMTPSAAKIHQLLGHGAPIINDHIALRTFNIAKVNLSVLAKHFTSIGYVDSGDYKFEQKKLIAKHFEHPDPKQPKVFISELLVEEFSPEVQKSIHGLIDQVDIAATTADNFIYSGRHWDVDKATYQALLAESEYAAWVAALGYRANHFTVSINDLPEFERIEDVNQALKQAGFVLNSSGGEVKGSPEVLLEQSSTMADKVVVNFTDGDVEIPSCFYEFARRYPMANGQLYTGFVAASADKIFESTNAMM”, the protein production entry is “not failed”.

Consider “MLKPLVLSDSSPVRPRDLTLLDQEEAGLVSTFINRPPIDIFKILPSKDDPDWPSFQQILSKFPDTEHLCPDGGLVNNSFILDIVLPQKWIDHRVCNPRFFQSIVSTTCYFMGFVFYADLNLGFMHFSPFHIAII”, for which the protein production result is on record as “failed”.

As to “MGGDARRALFVPAPSPTLHRMLPDALRDTLEERLDATIESVASVRGGCIANACRLETDAAPFFLKHGPDEVARTFPGEAAGLEALGAADSPLVVPSVHDTAPATDDRPGFLVMEWVNPGREGRRFWDRFGEGLAALHRHTADAYGFGQDNFIGRLPQSNAWTDDWPTFFREQRLAPQVDMARERGRWRDGWGTALTTLYRRLPDILPRSPEPSVLHGDLWKGNYLVTAVGDPALVDPATYYGHREADLAMTELFGGYDDRFYDAYRSAWGLAPEYGTRRDVYNLYHLINHLNLFGGGYAAQVEDTLRPFK”, the protein production result is “failed”.

Take “MQKALFNLVLRGLEKQVPATGLGLFRLAFGLVAFQEICFLYYFRQLIFDPVPYLDIASPSVHLFLVLWAIAALCLALGLYTRLAAIANYLFWLVFTVFTPMWKDFDGGFDQLMLGSSLLLIFLPSERAWSLDRLRLAWRHSTVDRCYALPRTVPVLCYFLPLAVSLGFIYFDSVIHKLFAEFWRNGLGPWLPSSLPYYMSPLDMGWLLEIEPLQRAIGYTIIAFQFAFLFLLYFRRFRVPLMLVGLSLHAGIIVSLNIYPFGFGMLVHYFLMVPFRWWRTLGRTLRPAEPALQVFYDERCPLCLKTVLAIEHFDVFRAVEFRGLQTHAATAPALEDIPERDLLGDLYAVDREGRRYSGVATYARILVAMRYPALAGLAMRLPGLATIADRVYRRIADNRVRLGCDASCAPAPGRTEPDLAQRIGRWVGGSLQQRANRISRMLVVVLILQLNCTLHYAILYRLGVDTKANEAGQVLTMLSNALISASHTFLGITPHPLYLHDHFQGYEHILGIVHLDADGKERWLPFVDEEGRIVSPNWGRVHSMWANVAVTRHMDPRRLDKFVRKVTAFWGTRLGLDLNRTTFVLKLKTVKAPMDWEPGLRRYNLAQPWEDVGRAVWRDGEMRLELDRDLEALSAD”: the protein production result was “failed”.
